Assay results from article PMC4335299 (Genes & Development, 2015).
Numbering of substitutions follows the chain as printed. In names and notes the source's numbering stands. Where two headings read alike, the source gives them in different places. Blank lines part the entries; values can stand above or below the molecule they belong to.

Key:
[1] = target: Bacillus subtilis GlnK, wild type (Bacillus subtilis); assay: SAXS
[2] = target: Bacillus subtilis TnrA, full length (Bacillus subtilis) (UniProt Q45666); assay: ITC
[3] = target: Bacillus subtilis GlnK, wild type (Bacillus subtilis); assay: crystal structure
[4] = target: Bacillus megaterium TnrA, full length (Bacillus megaterium); assay: crystal structure
[5] = target: T1, GS(E424K) (Bacillus subtilis, UniProt P12425 1-444, E424K); assay: fluorescence polarisation
T1 sequence (looked up): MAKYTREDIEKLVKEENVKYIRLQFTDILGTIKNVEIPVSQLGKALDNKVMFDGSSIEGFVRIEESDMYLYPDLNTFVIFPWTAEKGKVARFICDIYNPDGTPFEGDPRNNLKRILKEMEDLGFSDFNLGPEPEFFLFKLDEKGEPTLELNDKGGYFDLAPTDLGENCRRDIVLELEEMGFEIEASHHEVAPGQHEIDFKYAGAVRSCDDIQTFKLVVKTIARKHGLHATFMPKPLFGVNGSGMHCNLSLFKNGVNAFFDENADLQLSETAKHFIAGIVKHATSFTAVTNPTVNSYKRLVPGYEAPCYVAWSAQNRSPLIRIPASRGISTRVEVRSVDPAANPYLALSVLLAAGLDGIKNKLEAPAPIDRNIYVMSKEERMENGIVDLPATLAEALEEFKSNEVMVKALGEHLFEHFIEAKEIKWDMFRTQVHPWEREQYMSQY

[6] = target: T2, GlnRΔ18 (Bacillus subtilis, UniProt P37582 1-117, del118-135); assay: fluorescence polarization
T2 sequence: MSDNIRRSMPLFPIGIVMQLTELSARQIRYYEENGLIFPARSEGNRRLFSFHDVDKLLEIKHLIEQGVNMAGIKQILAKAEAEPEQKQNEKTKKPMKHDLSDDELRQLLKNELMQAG

[7] = target: T3, TnrA (Bacillus subtilis, UniProt Q45666 1-110); assay: fluorescence polarization
T3 sequence: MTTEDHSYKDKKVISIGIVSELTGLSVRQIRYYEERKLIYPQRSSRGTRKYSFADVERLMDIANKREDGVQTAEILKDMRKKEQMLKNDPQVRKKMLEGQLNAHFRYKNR

[8] = target: T4, TnrA (Bacillus megaterium, UniProt G2RUZ1 1-108); assay: X-ray crystallography
T4 sequence: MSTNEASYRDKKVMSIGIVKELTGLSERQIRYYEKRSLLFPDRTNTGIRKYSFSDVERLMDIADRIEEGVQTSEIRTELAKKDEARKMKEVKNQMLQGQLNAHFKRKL

[9] = target: T5, Bacillus subtilis glutamine synthetase, wild type, full length (Bacillus subtilis, UniProt P12425 1-444); assay: crystal structure
T5 sequence (looked up): T1 sequence (looked up) with K424E

[10] = target: T6, GlnR FL (Bacillus subtilis, UniProt P37582 1-135); assay: fluorescence polarization
T6 sequence: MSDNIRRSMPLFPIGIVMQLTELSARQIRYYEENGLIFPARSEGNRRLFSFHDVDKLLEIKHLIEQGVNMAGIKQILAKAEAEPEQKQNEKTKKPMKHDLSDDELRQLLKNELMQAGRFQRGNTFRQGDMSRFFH

[11] = target: the molecule itself; assay: crystal structure
[12] = target: T7, TnrA;GlnK (Bacillus subtilis;Bacillus subtilis, UniProt Q45666;Q07428 1-110;1-116, |); assay: SAXS
T7 sequence 1: T3 sequence
T7 sequence 2: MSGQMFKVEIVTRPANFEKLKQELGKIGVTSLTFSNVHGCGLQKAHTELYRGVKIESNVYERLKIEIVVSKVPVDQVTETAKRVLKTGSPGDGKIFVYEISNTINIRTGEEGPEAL

[13] = target: T5, Bacillus subtilis glutamine synthetase, …; assay: crystal structure; remark: listed apart in the source

B2: 17mer FP (dsDNA)
DNA 1: TGTAAGATTTCCTGACA
DNA 2: TGTCAGGAAATCTTACA
Kd [6]: 8.1 ± 0.3 nM
Kd [7]: 15.7 ± 0.9 nM

B3: 21mer site (crystal) (dsDNA)
DNA 1: CGTGTAAGATTTCCTGACACG
DNA 2: CGTGTCAGGAAATCTTACACG
binding result [8]: binds

B4: 21mer FP (dsDNA)
DNA 1: CGTGTAAGATTTCCTGACACG
DNA 2: CGTGTCAGGAAATCTTACACG
binding signal [10]: > 10 fold weaker than GlnRΔ18
Kd [6]: 6 ± 0.9 nM
Kd [7]: 11.6 ± 1.8 nM

B5: GlnRΔ18 (domain or fragment, Bacillus subtilis, UniProt P37582 1-117, looked up)
chain: T2 sequence
stoichiometry N [11]: 2

B6: 17mer SAXS (dsDNA)
DNA 1: TGTCAGATAATCTGACA
DNA 2: TGTCAGATTATCTGACA
binding result [12]: binds

Further lines, results first:

stoichiometry N [1]: 3
stoichiometry N (GlnK subunit per TnrA subunit) [2]: 0.5
stoichiometry N [3]: 3
Molecule: Bacillus subtilis GlnK, wild type (natural protein)

stoichiometry N [4]: 2
Molecule: Bacillus megaterium TnrA, full length (natural protein)

binding result [5]: binds
B1: TnrA(K108E) (natural protein, Bacillus subtilis, UniProt Q45666 1-110, looked up)
chain: T3 sequence with K108E

binding result [9]: binds
Molecule: RFQRGNTFRQGDMSRFFH [GlnR C-terminal peptide]

binding result [13]: binds
Molecule: EILKDMRKKEQMLKNDPQVRKKMLEGQLNAHFRYKNR (domain or fragment, Bacillus subtilis, UniProt Q45666 74-110, looked up) [TnrA(74–110)]
